Laboratory results taken from publication PMC11532494 (Nature Communications, 2024).
Values joined by “and” are separate entries in the source; they are usually repeats but may differ in a detail not shown here. Equal entries are not always repeated. Where two headings read alike, the source gives them in different places. No end group written: not given here. *: point of attachment. AMC = Cc1cc(=O)oc2cc(N*)ccc12

How the values were obtained:
[1] = system: VsHdaH (1b); type: biochemical, Vibrio sp.
[2] = system: RsPrpH (1b); assay: Substrate screening assay (acyl-peptide-AMC); type: biochemical, Rhizorhabdus sp.
[3] = molecular target: RwDmhA (1b) (Rhizorhabdus wittichii, UniProt A0A067XIQ6); type: biochemical
[4] = molecular target: KpHdaH (1b) (Klebsiella pneumoniae, UniProt A0A377Z5F6); type: biochemical
[5] = molecular target: T1, BsAcuC (2c) (Bacillus subtilis, UniProt P39067); assay: Substrate screening assay (acyl-peptide-AMC); type: biochemical
T1 construct: made in house; host or cells: E. coli BL21 (DE3)
T1 sequence (P39067 1-387): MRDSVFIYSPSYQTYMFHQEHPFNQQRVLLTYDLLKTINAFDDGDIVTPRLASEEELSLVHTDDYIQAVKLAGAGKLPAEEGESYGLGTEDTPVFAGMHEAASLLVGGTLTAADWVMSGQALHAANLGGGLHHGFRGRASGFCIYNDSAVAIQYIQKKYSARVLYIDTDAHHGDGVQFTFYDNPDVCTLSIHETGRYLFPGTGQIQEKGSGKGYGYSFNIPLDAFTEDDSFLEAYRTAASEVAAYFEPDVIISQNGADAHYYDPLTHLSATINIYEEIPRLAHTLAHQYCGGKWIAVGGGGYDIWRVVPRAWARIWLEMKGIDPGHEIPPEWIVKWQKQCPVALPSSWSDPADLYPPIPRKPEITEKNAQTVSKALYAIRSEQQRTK
Description: (§1) Experiments with SIRT2 and SIRT5 were supplemented with NAD^+ (500 µM). Thereafter, a solution of trypsin (25 µL, 5.0 mg/mL; final concentration of 2.5 mg/mL) was added, and the development of the assay was allowed to proceed for 90 min at room temperature before fluorescence analysis. […] To this end, a single category is given to all conversions >48% on the heatmap. […] For the H4-derived peptide LGKbio no positive control was available.

[6] = system: VcHdaH (5b); type: biochemical, Vibrio cholerae
[7] = molecular target: PsApaH (4) (Pseudomonas sp. M30-35, UniProt A0A1Y0KY79); type: biochemical
Description: as §1

[8] = molecular target: LcApaH (3) (Legionella cherrii, UniProt A0A0W0SGS1); type: biochemical
[9] = molecular target: LpApaH (3) (Legionella pneumophila, UniProt A0A2S6EWV0); type: biochemical
[10] = system: Controls; type: biochemical
[11] = system: Controls; type: biochemical; remark: listed apart in the source
[12] = substrate screening, mean of two measurements
[13] = substrate screening, measurement 1 of two
[14] = substrate screening, measurement 2 of two
[15] = two measurements, single values

“QPKKmyr (QPKK-{AMC}; not fully specified (residue 4); printed as QPKKmyr; also: myristoyl-lysine (which Lys not given here); UniProt P04637 317-320, looked up, fragment)” was tested, and the “RFU means, VsHdaH (1b)” value ([1]; means of two measurements) was -206 RFU, the “RFU*2 means, VsHdaH (1b)” value ([1]; means of two measurements) was -412 RFU*2 and the “[AMC] (nM), VsHdaH (1b), means” value [1, 12] was -201.17 nM. For the same substance, the “[AMC] (nM), VsHdaH (1b)” value [1, 13] was 172.85 nM, the “[AMC] (nM), VsHdaH (1b)” value [1, 14] was -575.20 nM and the “RFU means, RsPrpH (1b)” value ([2]; means of two measurements) was -466 RFU. The “RFU*2 means, RsPrpH (1b)” value ([2]; means of two measurements) was -932 RFU*2, the “[AMC] (nM), RsPrpH (1b), means” value [2, 12] was -455.08 nM and the “[AMC] (nM), RsPrpH (1b)” value [2, 13] was -105.47 nM. For the same substance, the “[AMC] (nM), RsPrpH (1b)” value [2, 14] was -804.69 nM, the “RFU means, RwDmhA (1b)” value ([3]; means of two measurements) was -605.5 RFU and the “RFU*2 means, RwDmhA (1b)” value ([3]; means of two measurements) was -1211 RFU*2. For the same substance, the “[AMC] (nM), RwDmhA (1b), means” value [3, 12] was -591.31 nM, the “[AMC] (nM), RwDmhA (1b)” value [3, 13] was -337.89 nM and the “[AMC] (nM), RwDmhA (1b)” value [3, 14] was -844.73 nM. For the same substance, the “RFU means, KpHdaH (1b)” value ([4]; means of two measurements) was 147 RFU, the “RFU*2 means, KpHdaH (1b)” value ([4]; means of two measurements) was 294 RFU*2 and the “[AMC] (nM), KpHdaH (1b), means” value [4, 12] was 143.55 nM. For the same substance, the “[AMC] (nM), KpHdaH (1b)” value [4, 13] was 173.83 nM, the “[AMC] (nM), KpHdaH (1b)” value [4, 14] was 113.28 nM and the “RFU*2, KpHdaH (1b)” value [4, 15] was 356 RFU*2 and 232 RFU*2. For the same substance, the “RFU, KpHdaH (1b)” value [4, 15] was 178 RFU and 116 RFU, the “RFU means, BsAcuC (2c)” value ([5]; means of two measurements) was 540 RFU and the “RFU*2 means, BsAcuC (2c)” value ([5]; means of two measurements) was 1080 RFU*2. For the same substance, the “[AMC] (nM), BsAcuC (2c), means” value [5, 12] was 527.34 nM, the “RFU means, VcHdaH (5b)” value ([6]; means of two measurements) was -187.5 RFU and the “RFU*2 means, VcHdaH (5b)” value ([6]; means of two measurements) was -375 RFU*2. For the same substance, the “[AMC] (nM), VcHdaH (5b), means” value [6, 12] was -183.11 nM, the “RFU means, PsApaH (4)” value ([7]; means of two measurements) was 76.5 RFU and the “RFU*2 means, PsApaH (4)” value ([7]; means of two measurements) was 153 RFU*2. The “[AMC] (nM), PsApaH (4), means” value [7, 12] was 74.71 nM, the “[AMC] (nM), PsApaH (4)” value [7, 13] was 39.06 nM and the “[AMC] (nM), PsApaH (4)” value [7, 14] was 110.35 nM. The “RFU means, LcApaH (3)” value [8] was 256.5 RFU, the “RFU*2 means, LcApaH (3)” value [8] was 513 RFU*2 and the “[AMC] (nM), LcApaH (3), means” value [8] was 250.49 nM. For the same substance, the “RFU means, LpApaH (3)” value [9] was 459 RFU, the “RFU*2, LpApaH (3)” value [9] was 820 RFU*2 and 1016 RFU*2 and the “RFU*2 means, LpApaH (3)” value [9] was 918 RFU*2. For the same substance, the “RFU, LpApaH (3)” value [9] was 410 RFU and 508 RFU, the “[AMC] (nM), LpApaH (3)” value [9] was 400.39 nM and 496.09 nM and the “[AMC] (nM), LpApaH (3), means” value [9] was 448.24 nM. The “RFU means, controls” value [10] was 6774 RFU, the “RFU*2, controls” value [10] was 12310 RFU*2 and 14786 RFU*2 and the “RFU*2 means, controls” value [10] was 13548 RFU*2. The “RFU, controls” value [10] was 6155 RFU and 7393 RFU and the “[AMC] (nM), controls, means” value [11] was 6615.23 nM.
